In patent US20260234276A1 (DOMAIN THERAPEUTICS, published 2026):
Where “and” joins values, the source holds several entries; their conditions need not be identical. Equal entries are not always repeated.

B1: 3-12 (antibody, V domains shown)
VH: QVQLQQPGAVLVKPGASVKMSCKASGYTFTSYNMHWLKQTPGQGLEWIGAIAPGKGDTSHNQKFKGKATLTADKSSSTAYMQLSSLTSEDSAVYYCARRNNYEPFVYWGQGTLVTVSA
VL: DIVFTQSPASLAVSLGQRATISCRASESVEYYGTSLMQWYQQKPGQPPKLLIYAASNVESGVPARFSGSGSGTDFSLNIHPVEADDIAMYFCQQSRKVPFTFGSGTKLEIK
B2: 3-47 (antibody, V domains shown)
VH: QVQLQQPGAELVKPGASVKMSCKASGYTFTSYNMHWVKQTPGQGLEWIGAISPGNGDTSYNQKFKGKATLTADKSSSTAYMQLSSLTSEDSAVYYCARGKNGNVPMDYWGQGTSVTVSS
VL: DIVLTQSPASLAVSLGQRATISCRASESVEYYGTSLMKWYQQKPGQPPKLLIYAASIVESGVPARFSGSGSGTDFSLNIHPVEEDDIAMYFCQQSRKVPWTFGGGTKLEIK
B3: 3-23 (antibody, V domains shown)
VH: QVQLVETGGGLVRPGNSLKLSCVISGFTFSNYRIHWLRQPPGKRLEWIAVITVKSDNYEANYAESVKGRFTISRDDSKSSVYLQMNRLREEDTATYYCSRPDGFSPFVYWGQGTLVTVSA
VL: DIKMTQSPSSMYASLGERVTITCKASQDINNYLSWFQQKPGKSPKTLIYRADRLVDGVPSRFSGSGSGQDYSLTISSLDYEDMGIYYCLQYAEFPPTFGAGTKLELK
B4: 3-31 (antibody, V domains shown)
VH: DVQLQESGPGLVKPSQSLSLTCTVTGYSITSNYAWNWIRQFPGNKLEWMVYITYSGSTRFNPSLKSRISITRDTSKNQFFLQLNSVTTEDTATYYCARGENLFAYWGQGTLVIVSA
VL: DVVMTQTPLSLPVSLGDQASISCRSSQSLVHNNGNTYLHWYLQKPGQSPKLLIYKVSNRFSGVPDRFSGSGSGTDFTLKINRLEAEDLGVYFCSQSTYVPLTFGAGTKLELK
B5: 3-52 (antibody, V domains shown)
VH: QVQLQQPGSELVRPGASVKLSCKASGYTFTSYWMHWVKQRPGQGLEWIGNIWPGSASTNYDEKFKNKATLTVDTSSSTAYMQLSSLTSEDSAVYYCIRGGKGAMDYWSQGTSVTVSS
VL: DVVMTQIPLSLPVSLGDQASISCRSSQSLENSYGNTYLNWYLQKPGQSPQLLIYRVSNRFSGVLDRFSGSGSGTDFTLKISRVEAEDLGVYFCLQVTHVPPTFGAGTKLELK
B6: 3-40 (antibody, V domains shown)
VH: QVQLKESGPGLVAPSQSLSITCTVSGLSMNDYVVTWIRQPPGKGLEWLGVIWGGGNTYYNSDLKSRLSITKDNSKSQVFFKMSSLQTDDTAVYYCARRHRDYALDYWGQGISVTVSS
VL: ENVLTQSPAIMSASPGEKVTMTCRASSSVSSSYLHWYQQKSGASPKLWIYSTSNLASGVPARFSGSGSGTSYSLTISSVEAEDAATYYCQQYSGYPYTFGGGTKLEIK
B7: 3-51 (antibody, V domains shown)
VH: QVQLQQSGAELVRPGVSVKISCKGSGYTFTDYAIHWVKQRHAKSLEWIGVISTYYGDTRYNQKFKGKATMTVDKSSNTAYMELARLTSEDSAIYYCARGGLRQDYAMNYWGQGTSVTVSS
VL: not shown
B8: 3-34 (antibody, V domains shown)
VH: EVQLQQSGPELVKPGASVKISCKTSGYTFTEYTIHWVKQSHGKSLEWVGGINPDNGNTRYDQKFKGKATLTIDKSSSTAYMELRSLTSEDSAVYYCARVARSSGSGPYAMDYWGQGTSVTVSS
VL: DVVMTQTPLSLPVSLGDQASISCRCTQSLLHTNGDTYLHWYLQKPGQSPKLLIYKVSNRFSGVPDRFSGSGSGTDFTLKISRVEAEDLGVYFCSQSTHVPYTFGGGTKLEIK
B9: 3-42 (antibody, V domains shown)
VH: QVQLKESGPGLVAPSQSLSITCTVSGFSLTDYRVSWIRQPPGKGLEWLGVIWGGRSTYYNSALKSRLSISKDNSKSQVFLKMNSLQTDDTAMYYCAKQGDGYYALDYWGQGTSVTVSS
VL: DVVMTQTPLSLPVSLGDQASISCRSSQSLVHSYGNTYLHWYLQKPGQSPKLLIYKVSNRFSGVPDRFHGSGSGTDFTLKISRVEAEDLGVYFCSQSTHVPPTFGGGTKLEIK
B10: 3-44 (antibody, V domains shown)
VH: QVQLKESGPGLVAPSQSLSITCTVSGFSLTDYGVSWIRQPPGKGPEWLGVIWGGGNTYYNSVLKSRLSISNDNSKSQVFLRMNSLQTADTAIYYCARPRRDYYALDYWGQGTSVTVAS
VL: DVVMTQTPLSLPVSLGDQASISCRSSQSLVYTNGNTFLHWYLQKPGQSPKLLIYKVSNRFSGVPDRFSGSGSGTDFTLKISRVEAEDLGVYFCSQSTHVPPTFGGGTKLEIK

Columns and labels:
pm8 = pm8 (human, sulfated tyrosines at Y15, Y16 and Y17); experiment: ELISA on coated peptide [cont.]
Sequence of pm8 (human, sulfated tyrosines at Y15, Y16 and Y17) (peptide, as listed by the source): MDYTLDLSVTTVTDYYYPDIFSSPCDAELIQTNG
Method: (§1) The specific binding properties of antibodies were evaluated by ELISA with coated CCR8 related peptides (500 ng/mL) in carbonate/bicarbonate buffer. Different peptides were used as described in Table 1 (see Example 1). Each anti-CCR8 mAb was tested at 1 μg/mL then diluted at 1/10. After an incubation at room temperature during 90 min, unbound mAbs were removed by washings. […] After washings, 3,3′,5,5′-tetramethylbenzidine (TMB) (Interchim, Montlugon, France) was added for 15 min. Then the optical density (OD) was determined by using a multiplate reader (Tecan, Lyon, France) and correlated with mAb reactivity on the panel of coated peptides.

pm6 = pm6 (human, sulfated tyrosines at Y16 and Y17); experiment: ELISA on coated peptide [cont.]
Sequence of pm6 (human, sulfated tyrosines at Y16 and Y17) (peptide, as listed by the source): as above
Method: as §1

pm5 = pm5 (human, sulfated tyrosines at Y15 and Y17); experiment: ELISA on coated peptide [cont.]
Sequence of pm5 (human, sulfated tyrosines at Y15 and Y17) (peptide, as listed by the source): as above
Method: as §1

human CCR8 [1] = biological target: T1, human CCR8 (human, UniProt P51685 1-355); experiment: flow cytometry, hCCR8 transfected CHOK1 cells
T1 construct: the cells are named under assay; also called hCCR8
Method: Briefly, 1·10⁵ cells per well in a 96 well plate were incubated with a dilution of unconjugated anti-CCR8 mAb at 10 μg/mL then diluted at 1/3.33, 4 dilution points (during 30 min at 4° C.). […] To determine EC50 value, 8 concentrations of anti-CCR8 mAb were tested. Unbound antibodies were washed away with PBS (Invitrogen by Thermofisher Scientific, Illkirch-Graffenstaden, France) supplemented by 2% Fetal Bovine Serum (Invitrogen by Thermofisher Scientific, Illkirch-Graffenstaden, France) and 2 mM EDTA (Invitrogen by Thermofisher Scientific, Illkirch-Graffenstaden, France). Subsequently, cells are centrifuged (5 min at 400 g) and bound antibody is detected with F(ab′)₂-Goat anti-Mouse IgG (H+L) Cross-Adsorbed Secondary Antibody, Alexa Fluor 488 (dilution 1/500) (Invitrogen by Thermofisher Scientific, Illkirch-Graffenstaden, France) or with F(ab′)₂-Goat anti-Human IgG Fc Secondary Antibody, PE (Invitrogen by Thermofisher Scientific, Illkirch-Graffenstaden, France) (dilution 1/1000) at 4° C. for 30 min. Detection reagent is washed away and cells are centrifuged (5 min at 400 g) and resuspended in 30 μL PBS. Bound detection antibody is quantified on a MacsQuant16 (Miltenyi, Gladbach, Germany) (B1 or B2 channel, 5000 events per acquisition).

human CCR8 [2] = biological target: T1, human CCR8; experiment: cell-based or functional assay
pm3 = pm3 (human, sulfated tyrosine at Y17); experiment: ELISA on coated peptide [cont.]
Sequence of pm3 (human, sulfated tyrosine at Y17) (peptide, as listed by the source): as above
Method: as §1

human CCR8 [3] = biological target: T1, human CCR8; experiment: cell-based or functional assay; remark: listed apart in the source

Row | Binder | binding result (pm8) | binding result (pm6) | binding result (pm5) | % positive cells (human CCR8 [1]) [%] | MFI fold change to isotype ctrl (human CCR8 [1]) [fold] | IC50 (Gi2 BRET, pH 6.5) (human CCR8 [2]) | IC50 (Gi2 BRET, pH 7.4) (human CCR8 [2]) | binding result (pm3) | hCCL1 (100 nM) residual response, Protocol #2, mAb 0.08 µg/mL (human CCR8 [3]) [%] | hCCL1 (100 nM) residual response, Protocol #2, mAb 0.4 µg/mL (human CCR8 [3]) [%] | hCCL1 (100 nM) residual response, Protocol #2, mAb 10 µg/mL (human CCR8 [3]) [%] | hCCL1 (100 nM) residual response, Protocol #3, mAb 0.05 µg/mL (human CCR8 [3]) [%] | hCCL1 (100 nM) residual response, Protocol #3, mAb 0.5 µg/mL (human CCR8 [3]) [%] | hCCL1 (100 nM) residual response, Protocol #3, mAb 5 µg/mL (human CCR8 [3]) [%]
1 | B1 | binds | binds | binds | 87.8 | 14.9 | 0.037 µg/ml and 0.248 nM | 0.088 µg/ml and 0.587 nM |  |  |  |  |  |  | 
2 | B2 | binds | binds | binds | 75.8 | 6.81 | 0.175 µg/ml and 1.16 nM | 0.483 µg/ml and 3.22 nM | binds |  |  |  |  |  | 
3 | B3 | binds | binds | binds | 80 | 12.7 | > 4.5 µg/ml and > 30 nM | > 4.5 µg/ml and > 30 nM | binds |  |  |  |  |  | 
4 | B4 | binds | binds | binds | 65.6 | 5.35 | 0.163 µg/ml and 1.09 nM | 0.237 µg/ml and 1.58 nM | binds |  |  |  |  |  | 
5 | B5 |  |  |  | 81.6 | 9.92 | 0.078 µg/ml and 0.523 nM | 0.087 µg/ml and 0.579 nM |  | 99 | 83 | 56 | 116 | 90 | 45
6 | B6 | binds | binds | binds | 69.9 | 5.81 |  |  | binds |  |  |  |  |  | 
7 | B7 | binds |  | binds | 73.2 | 6.91 | > 67 nM and > 10 µg/ml | > 10 µg/ml and > 67 nM |  |  |  |  |  |  | 
8 | B8 | binds | binds | binds | 73.7 | 10.3 | 0.207 µg/ml and 1.38 nM | 0.281 µg/ml and 1.88 nM | binds |  |  |  |  |  | 
9 | B9 | binds | binds | binds | 57.7 | 3.84 | 0.516 µg/ml and 3.44 nM | 0.82 µg/ml and 5.47 nM | binds |  |  |  |  |  | 
10 | B10 | binds | binds | binds | 78.9 | 6.36 | 0.578 µg/ml and 3.85 nM | 0.812 µg/ml and 5.41 nM | binds |  |  |  |  |  | 
